The values below come from patent publication US20210363269A1 (ALX ONCOLOGY, published 2021).

Assay [1] concerns the target T1, NOD mouse SIRP-α D1 domain (mouse (NOD strain)).
T1 chain: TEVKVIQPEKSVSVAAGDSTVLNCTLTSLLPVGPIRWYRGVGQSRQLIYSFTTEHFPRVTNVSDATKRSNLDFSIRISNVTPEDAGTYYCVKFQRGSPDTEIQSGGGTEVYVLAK
The experiment in a line: SPR, ProteOn, antibody on chip. On the procedure: (§1) All experiments were performed at 25° C. using a SPR-based ProteOn XPR36 biosensor (BioRad, Inc, Hercules, Calif.) equipped with GLC or NLC sensor chips. […] Purification was carried out by standard Protein A affinity column chromatography and eluted antibodies were stored in PBS buffer.
(§2) For the method using GLC chip, the analytes were injected and flowed over anti-SIRPα antibodies immobilized (˜1000 RUs) on GLC chips using Proteon™ Amine Coupling Kit. For the immobilization step, GLC chip was activated with EDAC/Sulpho-NHS 1:1 (Biorad) diluted 1/100 for 300 s at 25 μL/min. Anti-SIRPα antibodies were diluted to 80 nM concentration in 10 mM sodium acetate buffer pH 4.5 and immobilized to the chip at 30 μL/min for 50 s. Chip was inactivated with ethanolamine for 300 s at 25 μL/min. The analytes (e.g., SIRP-α from different species, SIRP-β, SIRP-γ) were injected in a “one-shot” kinetic mode at nominal concentrations of 100, 33, 11, 3.7, 1.2 and 0 nM. Association times were monitored for 90 s at 100 μL/min, and dissociation times were monitored for 1200 s. The surfaces were regenerated with a 2:1 v/v blend of Pierce IgG elution buffer/4M NaCl.
(§3) Next, the binding kinetics of various antibody clones to selected mouse SIRP-α proteins were determined as described above. Mouse proteins that were tested include BALBc (SEQ ID NO:10), BL6 (SEQ ID NO:9), NOD (SEQ ID NO:8), and m129 (SEQ ID NO:7) SIRP-α proteins. Antibody clones labeled as “c” were tested as full-length mouse IgG2a antibodies; antibody clones labeled as “a” were tested as full-length human IgG1 antibodies with L234A, L235A, G237A, and N297A mutations.
(Surface plasmon resonance follows binding to a sensor surface in real time, without labels.)

Assay [2] deals with T2, mouse 129 SIRP-α D1 domain (mouse (129 strain), UniProt P97797 32-150).
T2 construct: also called m129
T2 chain: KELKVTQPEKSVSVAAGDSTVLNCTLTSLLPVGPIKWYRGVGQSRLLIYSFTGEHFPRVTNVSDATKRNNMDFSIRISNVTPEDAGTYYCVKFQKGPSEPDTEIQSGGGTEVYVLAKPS
The assay can be described thus: SPR, ProteOn, antibody on chip. How it is done: as §1, §2, §3

Assay [3] has as its target T3, C57BL/6 mouse SIRP-α D1 domain (mouse (C57BL/6 strain), UniProt P97797 32-148).
T3 sequence: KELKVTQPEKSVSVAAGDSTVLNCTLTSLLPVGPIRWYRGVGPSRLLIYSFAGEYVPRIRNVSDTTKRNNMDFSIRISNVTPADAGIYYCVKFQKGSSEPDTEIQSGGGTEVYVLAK
The experiment in a line: SPR, ProteOn, antibody on chip. On the procedure: as §1
(§4) The running buffer was PBS pH 7.4 with 0.01% Tween-20 (PBST+). All analytes were used at their nominal concentrations as determined by A280 Absorbance and using their molar calculated extinction coefficient.
as §2

The target of assay [4] is T4, BALB/c mouse SIRP-α D1 domain (mouse (BALB/c strain)).
T4 chain: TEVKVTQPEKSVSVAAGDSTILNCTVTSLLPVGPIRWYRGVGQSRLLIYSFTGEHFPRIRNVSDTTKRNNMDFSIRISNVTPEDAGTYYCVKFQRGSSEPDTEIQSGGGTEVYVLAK
The assay can be described thus: SPR, ProteOn, antibody on chip. On the procedure:
as §1, §4, §2

In another assay the target is T5, human SIRP-α v2 (human).
T5 construct: also called Human v2; Human V2
The assay can be described thus: SPR. An outline of the steps: (§5)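 Runs took place at 25° C in PBS pH 7.4 containing 0.01% Tween-20 on a ProteOn XPR36 biosensor, with purified antibodies either amine-coupled to a GLC chip or captured through biotinylated Protein A on an NLC chip. SIRP analytes went in by one-shot kinetic injection at nominal concentrations based on A280 absorbance. Apparent rate constants came from a global simple Langmuir fit of double-referenced data, and KD was calculated as kd/ka.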

In a further assay the target is T6, human SIRP-α v1 (human, UniProt P78324 31-149).
T6 construct: also called Human v1; Human V1
T6 sequence (P78324 31-149 limits assumed): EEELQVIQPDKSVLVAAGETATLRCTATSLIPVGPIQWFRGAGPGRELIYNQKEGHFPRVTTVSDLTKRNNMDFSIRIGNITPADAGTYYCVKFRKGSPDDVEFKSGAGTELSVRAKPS
The assay can be described thus: SPR. The method in brief: as §5

The target in a further assay is T7, mouse 129 SIRP-α (mouse (129 strain), UniProt P97797 32-150).
T7 construct: also called m129
T7 chain: T2 chain
The assay can be described thus: SPR Koff +/-. An outline of the steps:
as §5

Substitutions are numbered along the chain they refer to.

B1: AB3c (antibody, mouse IgG2a, V domains shown)
VH: AVTLDESGGGLQTPGGALSLVCKASGFIFSDYGMNWVRQAPGKGLEFVAQITSGSRTYYGAAVKGRATISRDNRQSTVKLQLNNLRAEDTGIYFCARDFGSGVGSIDAWGNGTEVIVSS
VL: ALTQPASVSANLGGTVKITCSGSRGRYGWYQQRSPGSAPVTVIYRDNQRPSNIPSRFSSSTSGSTSTLTITGVQADDESVYFCGSYDGSIDIFGAGTTLTVL
notes: Full-length mouse IgG2a
By Kd is commonly meant the concentration at which binding is half-saturated. A low value points to a tighter complex. For orientation: koff means a measure of how fast the partners let go of each other. A high value points to a short-lived complex. By kon is commonly meant the rate constant with which the complex forms. The low end stands for slow association, the high end for fast association. Regarding B1, the Kd in assay [1] came to 1430 pM; in assay [2], 22000 pM; in assay [3], 15000 pM; in assay [4], 5310 pM. Also, the koff in assay [1] worked out at 0.00143 s⁻¹; in assay [2], 0.0118 s⁻¹; in assay [3], 0.00619 s⁻¹; in assay [4], 0.00412 s⁻¹. In addition, the on-rate (kon) in assay [1] is 999000 M⁻¹ s⁻¹; in assay [2] it was 534000 M⁻¹ s⁻¹; in assay [3], 412000 M⁻¹ s⁻¹; in assay [4] it was 776000 M⁻¹ s⁻¹.

B2: antibody 3 (antibody, V domains shown)
VH: B1 VH
VL: B1 VL
notes: also called AB3; S3
As to B2, the Kd turned out to be 76.7 pM in the assay with human SIRP-α v2 and 162 pM in the assay with human SIRP-α v1.

B3: antibody 175 (antibody, V domains shown)
VH: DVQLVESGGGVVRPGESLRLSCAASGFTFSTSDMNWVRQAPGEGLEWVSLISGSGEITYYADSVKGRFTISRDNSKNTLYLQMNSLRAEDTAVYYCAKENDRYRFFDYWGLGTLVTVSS
VL: ETVLTQSPGILSLSPGERATLTCRASQSVYTYLAWYQEKPGQAPRLLIYGASSRAAGIPDRFSGSGSGTEFTLTISSLQSEDFAVYYCQQYYDRPPLTFGGGTKVEIK
notes: also called S175
Turning to B3, the Kd in the assay with human SIRP-α v2 worked out at 662 pM; in the assay with human SIRP-α v1, 137 pM.

B4: antibody 189 (antibody, V domains shown)
VH: DVQLVESGGGVVRPGESLRLSCAASGFTFSSSDMNWVRQAPGEGLEWVSLISGSGEITYYADSVKGRFTISRDNSKNTLYLQMNSLRAEDTAIYYCAKENNMYRFFDYWGLGTLVTVSS
VL: B3 VL with I10T, T22S, E38Q, A43P, Y49H, G50A, S52R, S53N
notes: also called S189
B4: the Kd is 1900 pM with human SIRP-α v2 and 310 pM with human SIRP-α v1.

B5: antibody 163 (antibody, V domains shown)
VH: DVQLVESGGGLVRPGESLRLSCAASGFTFTNYAVTWVRQAPGEGLEWVSLISVTGTTYYADSVKGRFTISRDNSKSTLYLQMNGLRAEDTAVYYCAKVTWKNVFDYWGLGTLVTVSS
VL: EIVLTQSPGTLSVSPGERATFSCRASQTVGSKLAWYQQKPGQAPRLLIYDANTRATGIPARFSGSGSGTEFTLTISSLQSEDFAVYYCQQHTDWPPYTFGGGTKVEIK
notes: also called S163
In the case of B5, in the assay with mouse 129 SIRP-α, the binding result is “no binding”.

B6: antibody 164 (antibody, V domains shown)
VH: B5 VH
VL: B5 VL with G66R
notes: also called S164
With B6, the binding result with mouse 129 SIRP-α is reported as “no binding”.

B7: antibody 162 (antibody, V domains shown)
VH: B5 VH with G84S
VL: B5 VL
notes: also called S162
As for B7, in the assay with mouse 129 SIRP-α, the binding result is “no binding”.

B8: antibody 132 (antibody, V domains shown)
VH: DVQLVESGGGVVRPGESLRLSCAASGFSFRSYAMNWVRQAPGEGLEWVSRINSGGGGTDYADSVKGRFTISRDNSKNTLYLQMNSLRAEDTAVYYCAKQYDWNSFFDYWGLGALVTVSS
VL: ETVLTQSPATLSVSPGERATLSCRASQTVGSKLAWHQQKPGQAPRLLIYDASNRATGIPDRFSGSGSGTDFTLTISSPQTEDSAVYYCQQYYYWPPYRFGGGTKVEIK
notes: also called AB132; S132
As to B8, in the assay with mouse 129 SIRP-α, the binding result was “no binding”. The dissociation constant (Kd) turned out to be 1860 pM with human SIRP-α v2 and 426 pM in the assay with human SIRP-α v1.

B9: antibody 198 (antibody, V domains shown)
VH: B8 VH with R30S, Y32H, D62E, K76E, S104G
VL: B8 VL with S52T, P78L
notes: also called S198
With B9, the binding result in the assay with mouse 129 SIRP-α is “no binding”.

B10: antibody 191 (antibody, V domains shown)
VH: B8 VH with R30S, D62E, K76E, S104G
VL: B8 VL with S52T, S77G, P78L
notes: also called S191
Consider B10, for which the binding result with mouse 129 SIRP-α is reported as “no binding”.

B11: antibody 218 (antibody, V domains shown)
VH: DVQLVESGGGVVRPGESLTLSCTASGFTFTSSTMNWVRQAPGEGLDWVSSISTSGVITYYADSVKGRATISRDNSKNTLYLRLFSLRADDTAIYYCATDTFDHWGPGTLVTVSS
VL: ALTQPASVSANPGETVKITCFGSSGNYGWFQQKSPGSAPVTVIHYNNKRPSDIPSRFSGSKSGSTGTLTITGVRAEDEAVYFCGAWETGSATFGAGTTLTVL
notes: also called AB218; S218
B11: the figures for the Kd in the assay with human SIRP-α v2 and with human SIRP-α v1 were 276 pM and 123 pM, respectively.

B12: antibody 121 (antibody, V domains shown)
VH: VQLVESGGGVVQPGGSLRLSCAASGFSFSNFAMTWVRQAPGEGLEWVSTIGSGDTYYADSVKGRFTISRDNSKNTLYLQMNSLRAEDTAVYYCAKDSTVSWSGDFFDYWGLGTLVTVSS
VL: EIVLTQSPATLSVSPGERATFSCRASQNVKNDLAWYQQRPGQAPRLLIYAARIRETGIPERFSGSGSGTEFTLTITSLQSEDFAVYYCQQYYDWPPFTFGGGTKVEIK
notes: also called S121
On to B12, for which, in the assay with mouse 129 SIRP-α, the binding result is “no binding”. Also, the results for the Kd in the assay with human SIRP-α v2 and in the assay with human SIRP-α v1 were 50.1 pM and 157 pM, respectively.

B13: antibody 120 (antibody, V domains shown)
VH: B12 VH with L114R
VL: B12 VL
notes: also called S120
B13: the binding result with mouse 129 SIRP-α is “no binding”. In addition, the Kd was found to be 85.6 pM with human SIRP-α v2 and 214 pM in the assay with human SIRP-α v1.

B14: AB21c (antibody, mouse IgG2a, V domains shown)
VH: DVQLVESGGGVVRPGESLRLSCAASGFTFSSNAMSWVRQAPGKGLEWLAGISAGGSDTYYPASVKGRFTISRDNSKNTLYLQMNTLTAEDTAVYYCARETWNHLFDYWGLGTLVTVSS
VL: ALTQPASVSANPGETVKIACSGGDYYSYYYGWYQQKAPGSALVTVIYSDDKRPSDIPSRFSGSASGSTATLTITGVRAEDEAVYYCGGYDYSTYANAFGAGTTLTVL
notes: Full-length mouse IgG2a
Consider B14, for which the Kd in assay [1] was 640 pM; in assay [2], 58.8 pM; in assay [3], 876 pM; in assay [4] it was 1340 pM. Also, the koff worked out at 0.000479 s⁻¹ in assay [1], 3.31e-05 s⁻¹ in assay [2], 0.000241 s⁻¹ in assay [3] and 0.000618 s⁻¹ in assay [4]. The kon in assay [1] is 749000 M⁻¹ s⁻¹; in assay [2], 563000 M⁻¹ s⁻¹; in assay [3] it was 276000 M⁻¹ s⁻¹; in assay [4], 462000 M⁻¹ s⁻¹.
